The values below are quoted from earlier work in PMC3889014.

The target in this data set is Cys145 (UniProt position 145, PILIPCHRVVC).

Take “O6-alkylguanine DNA-alkyltransferase (AGT; MGMT) (Homo sapiens (inferred; not stated in the sentence with the pKa))”: the pKa was 4–5.
